From patent US20250027068
Residue numbers refer to the chain shown, from its start.

B1: PRT-284 (protein)
chain: MVTSVWTKGVTPPAKFTQGEDVFHAPYVANQGWYDITKTFNGKDDLLCGAATAGNMLHWWFDQNKEKIEAYLKKHPDKQKIMFGDQELLDVRKVINTKGDQTNSELFNYFRDKAFPNLSARRIGVMPDLVLDMFINGYYLNVYKTQTTDVNRTYQEKDRRGGIFDAVFTRGDQSKLLTSRHDFKEKNLKEISDLIKKELTEGKALGLSHTYANVRLNHVINLWGADFDSNGNLKAIYVTDSDSNASIGMKKYGVGVNSAGKVAISAKEIKEDNIGAQVLGLFTLSTGQDSWNQTN
B2: PRT-292 (protein)
chain: MVTSVWTKGVTPPADFTQGEDVFHAPYDANQGWYDITKTFNGKDDLLCGAATAGNMLHWWFDQNKEYIEAYLKKHPEKQKIMFGDQELLDVRKAINTKGSQKNSELFNYFRDKAFPNLSARRLGVMPDLVLDMFINGYYLNVTKTQTTDVNRTYQEKDKRGGIFDAVFTRGDQSKLLTSRHDFKEKGLKEISDLIKQELTEGKALGLSHTYANVRISHVINLWGADFDSDGNLKAIYVTDSDSNASIGMKKYFVGVNSAGKVAISAKEIKEDNIGAQVLGLFTLSTGQDIWNQTN
B3: PRT-301 (protein)
chain: B2 chain with A14T, T17I, Q18K, N30G
B4: PRT-300 (protein)
chain: B2 chain with A14T, T17I, Q18K, D28K, N30G, I216L, S217N, A259S
B5: PRT-293 (protein)
chain: B2 chain with D28V, I216L, S217N, F253G
B6: PRT-308 (protein)
chain: MQITSVWTKGVTPLTPEQFRENNEDVIHAPYLAHQGWYDITKAFDGKDNLLCGAATAGNMLHWWFDQNKTEIEAYLSKHPEKQKIIFNNQELFDLKAAIDTKDSQTNSQLFNYFRDKAFPNLSARQLGVMPDLVLDMFINGYYLNVGKTQSTDVNRPYQDKDKRGGIFDAVFTRGDQTTLLTARHDLKNKGLNDISTIIKQELTEGRALALSHTYANVSISHVINLWGADFDAEGNLEAIYVTDSDANASIGMKKYFVGRNAHGHVAISAKKIEGENIGAQVLGLFTLSLGKDIWQKLS
B7: PRT-309 (protein)
chain: B6 chain with N88G, N112D, L290S, I294Q
B8: PRT-252 (protein)
chain: MVTSVWTKGVTPPTNFTYGEDVLHAPYVANQGWYDITKLFNGKDDLLCGAATAGNMLHWWFDQNKEQIENYLKKHPEKQKINFNGEQMFDVKEAIDTKDSQLDSKLFEYFLEKAFPNLSTKHLGVFPDHVIDMFINGYRLSLLNHGPTPVKRGSKDPRGGIFDAVFTRGDQSKLLTNRHDFKEKTLKEISDLIKQELTEGKALGISHTYANGRINHVINLWGADFDAEGNLEAIAVTDSDSNASIGMKKYFVGVNSSGKVAISAKEIEEDNIGAQVLGLFTLSTGQDIWNQTN
B9: PRT-268 (protein)
chain: B8 chain with N15D, T17I, V28K, N30G, E108D, L111K, F181L, E183N, A235Y, A243P
B10: PRT-244 (protein)
chain: MVTSVWTKGVTPPANFTQGEDVFHAPYVANQGWYDITKTFNGKDDLLCGAATAGNMLHWWFDQNKDQIKRYLEEHPEKQKINFNGEQMFDVKEAIDTKNHQLDSKLFEYFLEKAFPNLSTKHLGVFPDHVIDMFINGYRLSLLNHGPTPVKEGSKDPRGGIFDAVFTRGDQSKLLTSRHDFKEKNLKEISDLIKKELTEGKALGLSHTYANVRINHVINLWGADFDSNGNLKAIAVTDSDSNASIGMKKYFVGVNSSGKVAISAKEIKEDNIGAQVLGLFTLSTGQDSWNQTN
B11: PRT-276 (protein)
chain: MVTSVWTKGVTPPTDFIYGEDVLHAPYKAGQGWYDITKTFNGKDNLLCGAATAGNMLHWWFDQNKEQIENYLKKHPEKQKIIFNNQELFDLKAAIDTKDSQLDSKLFEYFLEKAFPNLSTKHLGVFPDHVIDMFINGYRLSLLNHGPTPVKRGSKDKRGGIFDAVFTRGVQSKLLTNRHDLKNKTLKEISDLIKQELTEGKALGISHTYANVRINHVINLWGADFDAEGNLEAIAVTDSDTNASIGMKKYFVGVNSSGKVAISAKEIEEDNIGAQVLGLFTLSTGQDIWNQTN
B12: PRT-260 (protein)
chain: MVTSVWTKGVTPPTNFTYGEDVLHAPYVANQGWYDITKTFNGKDNLLCGAATAGNMLHWWFDQNKEQIENYLKKHPEKQKINFNGEQLFDVKEAIDTKDSQLDSKLFDYFKEKAFPNLSTKHLGVFPDHVIDMFINGYRLSLLNHGPTPVKRGSKDKRGGIFDAVFTRGVQSKLLTNRHDFKEKTLKEISDLIKQELTEGKALGISHTYANVRINHVINLWGADFDAEGNLEAIYVTDSDTNPSIGMKKYFVGVNSSGKVAISAKEIEEDNIGAQVLGLFTLSTGQDIWNQTN
B13: PRT-316 (protein)
chain: MTITSVWTKGVTPPTPEDFRKNNEDVLHAPYVANQGWYDITKTFDGKDNLLCGAATAGNMLHWWFDQNKEEIERYLKKHPEKQKIIFNNQELFDVKAAIDTKDSQTNSKLFNYFRDKAFPNLSARQLGVMPDLVLDMFINGYYLNLGKTQSTDVNRPYQDKDKRGGIFDAVFTRGDQTTLLTARHDLKNKGLNEISDLIKQELTEGKALALSHTYANVRINHVINLWGADFDAEGNLIAIYVTDSDANASIGMKKYFVGRNANGKVAISAKKIEGDNIGAQVLGLFTLSTGQDIWQKLS
B14: PRT-325 (protein)
chain: B13 chain with K21E, N88G, N112D, N236E, A249P
B15: PRT-332 (protein)
chain: B13 chain with K21E, L92W, N121G, M130F, G147P, D176V, F257A, R260V
B16: PRT-333 (protein)
chain: B13 chain with K21E, N88G, N121G, M130F, D176V, A249P
B17: PRT-324 (protein)
chain: B13 chain with K21E, N88G, A249P
B18: PRT-317 (protein)
chain: B13 chain with K21E, T290L

Biological target: pooled human IgG (human IgG1,2,3 and 4)

| Protein | Enzyme Activity Endpoint Assay: Fab′2 [ng/µL] | Enzyme Activity Endpoint Assay: Fc [ng/µL] | Enzyme Activity Endpoint Assay: IgG [ng/µL] | Enzyme Activity Endpoint Assay: scIgG [ng/µL] | Enzyme Activity Endpoint Assay (purified): Fab'2 [ng/µL] | Enzyme Activity Endpoint Assay (purified): Fc [ng/µL] | Enzyme Activity Endpoint Assay (purified): IgG [ng/µL] | Enzyme Activity Endpoint Assay (purified): scIgG [ng/µL] |
| --- | --- | --- | --- | --- | --- | --- | --- | --- |
| B1 | 72 | 184 | 45 | 483 | – | – | – | – |
| B2 | 758 | 359 | 0 | 0 | – | – | – | – |
| B3 | 0 | 0 | 1680 | 0 | – | – | – | – |
| B4 | 333 | 274 | 276 | 43 | – | – | – | – |
| B5 | 11 | 0 | 1260 | 0 | – | – | – | – |
| B6 | 405 | 204 | 59 | 106 | – | – | – | – |
| B7 | 0 | 0 | 1650 | 0 | – | – | – | – |
| B8 | 634 | 365 | 56 | 0 | – | – | – | – |
| B9 | 429 | 325 | 90 | 282 | – | – | – | – |
| B10 | 998 | 429 | 0 | 0 | – | – | – | – |
| B11 | 912 | 383 | 0 | 0 | – | – | – | – |
| B12 | 793 | 354 | 0 | 0 | – | – | – | – |
| B13 | 772 | 347 | 80 | 0 | – | – | – | – |
| B14 | – | – | – | – | 930 | 466 | 78 | 0 |
| B15 | 409 | 277 | 0 | 177 | – | – | – | – |
| B16 | – | – | – | – | 794 | 448 | 0 | 0 |
| B17 | 665 | 291 | 0 | 0 | – | – | – | – |
| B18 | 798 | 453 | 0 | 0 | – | – | – | – |
